Broadly, the Kd is the equilibrium constant for the complex coming apart. As usually defined, the kon is the second-order rate constant of association. Higher therefore signals fast association. Broadly, the koff is the rate constant with which the complex falls apart. High values mean fast dissociation, low ones slow dissociation. Usually EC50 (read off the curve) stands for the concentration at which the effect is half-maximal.

From patent US20210179689A1 (SHATTUCK LABS, published 2021) come the findings set out here.

The target in assay [1] is T1, human CD40 (human, UniProt P25942 21-193).
T1 construct: also called hCD40
T1 sequence (P25942 21-193 limits assumed): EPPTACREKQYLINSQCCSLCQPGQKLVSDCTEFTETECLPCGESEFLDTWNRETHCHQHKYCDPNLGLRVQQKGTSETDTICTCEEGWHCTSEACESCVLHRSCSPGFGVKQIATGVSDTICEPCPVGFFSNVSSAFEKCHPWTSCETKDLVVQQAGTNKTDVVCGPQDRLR
The assay can be described thus: Octet biolayer interferometry; Loading Sample ID hCD40-his; Full R^2 0.9682. In general terms: In BLI a coated tip is dipped into the sample, and binding shifts an interference pattern.

The target of assay [2] is T2, murine CD40 (murine, UniProt P27512 20-193, limits assumed).
T2 construct: also called mCD40
T2 sequence (looked up): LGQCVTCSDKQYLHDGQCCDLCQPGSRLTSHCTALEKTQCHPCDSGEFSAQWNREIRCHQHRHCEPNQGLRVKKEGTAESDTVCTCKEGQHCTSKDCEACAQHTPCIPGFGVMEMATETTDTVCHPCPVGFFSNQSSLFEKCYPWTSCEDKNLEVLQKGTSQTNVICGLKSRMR
The assay can be described thus: Octet biolayer interferometry; Loading Sample ID mCD40-his; Full R^2 0.7077.

In assay [3] the target is T1, human CD40. The assay can be described thus: Octet biolayer interferometry; Loading Sample ID hCD40-his; kdis(1/s); Full R^2 0.9682.
Assay [4] has as its target T2, murine CD40. The assay can be described thus: Octet biolayer interferometry; Loading Sample ID mCD40-his; kdis(1/s); Full R^2 0.7077.
Assay [5] has as its target recombinant mouse CD40-Fc protein (mouse) (UniProt P27512). The assay can be described thus: ELISA: coat mCD40-Fc, detection anti-mCD40L and an HRP conjugate. (In general: An ELISA detects its analyte on a solid surface through an enzyme-linked reagent.)
The target of assay [6] is human galectin-9 (human) (UniProt O00182). The assay can be described thus: Octet biolayer interferometry; Loading Sample ID hGal9; Full R^2 0.9934.
human galectin-9 (human), sequence (O00182 other isoform, or with tags, fused parts or gaps limits assumed): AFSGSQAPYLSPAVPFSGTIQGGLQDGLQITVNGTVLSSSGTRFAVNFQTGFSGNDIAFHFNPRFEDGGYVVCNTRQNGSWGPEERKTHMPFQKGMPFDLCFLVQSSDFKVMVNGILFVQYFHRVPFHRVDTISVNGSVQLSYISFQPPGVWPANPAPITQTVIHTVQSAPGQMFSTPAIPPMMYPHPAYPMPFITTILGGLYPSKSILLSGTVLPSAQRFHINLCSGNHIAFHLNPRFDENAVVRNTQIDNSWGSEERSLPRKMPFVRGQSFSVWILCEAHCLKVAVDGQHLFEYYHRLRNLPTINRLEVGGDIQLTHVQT
In assay [7] the target is mIgG Fc gamma. The assay can be described thus: sandwich ELISA: coat mIgG Fc gamma, detection goat anti-mouse Fc (H+L) HRP.
Assay [8] addresses T1, human CD40. The assay can be described thus: Octet biolayer interferometry; Loading Sample ID hCD40-his; Full R^2 0.3080.
In assay [9] the target is T1, human CD40. The assay can be described thus: Octet biolayer interferometry; Loading Sample ID hCD40-his; Full R^2 0.9393.
Assay [10] has as its target T1, human CD40. The assay can be described thus: Octet biolayer interferometry; Loading Sample ID hCD40-his; Full R^2 0.9810.
The target in assay [11] is T2, murine CD40. The assay can be described thus: Octet biolayer interferometry; Loading Sample ID mCD40-his; Full R^2 0.7890.
For assay [12], the target named is T2, murine CD40. The assay can be described thus: Octet biolayer interferometry; Loading Sample ID mCD40-his; Full R^2 0.9955.
For assay [13], the target named is murine galectin-9 (murine) (UniProt O08573). The assay can be described thus: Octet biolayer interferometry; Loading Sample ID mGal9; Full R^2 0.9866.
murine galectin-9 (murine), sequence (O08573 other isoform, or with tags, fused parts or gaps limits assumed): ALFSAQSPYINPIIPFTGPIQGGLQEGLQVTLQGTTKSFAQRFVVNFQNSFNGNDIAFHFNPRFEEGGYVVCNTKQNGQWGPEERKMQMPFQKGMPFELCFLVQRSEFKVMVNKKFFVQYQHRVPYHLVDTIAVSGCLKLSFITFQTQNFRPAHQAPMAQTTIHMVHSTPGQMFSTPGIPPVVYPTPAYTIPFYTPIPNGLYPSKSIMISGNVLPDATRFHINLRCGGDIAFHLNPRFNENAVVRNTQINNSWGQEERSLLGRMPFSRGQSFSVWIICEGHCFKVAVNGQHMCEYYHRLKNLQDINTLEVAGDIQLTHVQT
Assay [14] shares this target. The assay can be described thus: Octet biolayer interferometry; Loading Sample ID mGal9; Full R^2 0.9973.
Assay [15] deals with human galectin-9 (human) (UniProt O00182). The assay can be described thus: Octet biolayer interferometry; Loading Sample ID hGal9; kdis(1/s); Full R^2 0.9934.
For assay [16], the target named is T1, human CD40. The assay can be described thus: Octet biolayer interferometry; Loading Sample ID hCD40-his; kdis(1/s); Full R^2 0.3080.
For assay [17], the target named is T1, human CD40. The assay can be described thus: Octet biolayer interferometry; Loading Sample ID hCD40-his; kdis(1/s); Full R^2 0.9393.
Assay [18] deals with T1, human CD40. The assay can be described thus: Octet biolayer interferometry; Loading Sample ID hCD40-his; kdis(1/s); Full R^2 0.9810.
The target in assay [19] is T2, murine CD40. The assay can be described thus: Octet biolayer interferometry; Loading Sample ID mCD40-his; kdis(1/s); Full R^2 0.7890.
The target of assay [20] is T2, murine CD40. The assay can be described thus: Octet biolayer interferometry; Loading Sample ID mCD40-his; kdis(1/s); Full R^2 0.9955.
Assay [21] has as its target murine galectin-9 (murine) (UniProt O08573). The assay can be described thus: Octet biolayer interferometry; Loading Sample ID mGal9; kdis(1/s); Full R^2 0.9866.
Assay [22] shares this target. The assay can be described thus: Octet biolayer interferometry; Loading Sample ID mGal9; kdis(1/s); Full R^2 0.9973.
For assay [23], the target named is mIgG Fc gamma. The assay can be described thus: sandwich ELISA: coat mIgG Fc gamma, detection goat anti-mouse Fc (H+L) HRP; standard: mouse whole IgG.
The target in assay [24] is T1, human CD40. The assay can be described thus: Octet biolayer interferometry; Loading Sample ID hCD40-his; Full R^2 0.5111.
In assay [25] the target is T2, murine CD40. The assay can be described thus: Octet biolayer interferometry; Loading Sample ID mCD40-his; Full R^2 0.9077.
Assay [26] concerns the target T1, human CD40. The assay can be described thus: Octet biolayer interferometry; Loading Sample ID hCD40-his; kdis(1/s); Full R^2 0.5111.
In assay [27] the target is T2, murine CD40. The assay can be described thus: Octet biolayer interferometry; Loading Sample ID mCD40-his; kdis(1/s); Full R^2 0.9077.
Assay [28] addresses T2, murine CD40. The assay can be described thus: Octet biolayer interferometry; Loading Sample ID mCD40-his; KD and kdis cells blank; Full R^2 0.6015.

Regarding hCD40L-Fc (Fc fusion), the values for the Kd with human CD40 [1] and with murine CD40 [2] were 6.18 nM and 10.6 nM, respectively. Also, the figures for the on-rate (kon) with human CD40 [1] and with murine CD40 [2] were 120000 M⁻¹ s⁻¹ and 229000 M⁻¹ s⁻¹, respectively. In addition, the results for the koff with human CD40 [3] and with murine CD40 [4] were 0.000734 s⁻¹ and 0.00241 s⁻¹, respectively.
For “mTIM-3-Fc-CD40L chimeric protein (from UniProt Q8VIM0 20-193; P27548 47-260) (Fc fusion)”, the values for the concentration giving a half-maximal response (EC50 (read off the curve)) (in assay [5]; in the assay with mIgG Fc gamma [7]) were 10 nM and 4 nM, respectively. Besides, the Kd is 69 nM with human galectin-9 (human) [6]; 9.37 nM in the assay with human CD40 [8]; 9.46 nM with human CD40 [9]; 3 nM with human CD40 [10]; 29.9 nM with murine CD40 [11]; 8.92 nM with murine CD40 [12]. For the same molecule, the Kd turned out to be 7.07 nM in [13] and 16.7 nM in assay [14]. Besides, the on-rate constant (kon) was 59400 M⁻¹ s⁻¹ with human CD40 [9]; 30600 M⁻¹ s⁻¹ with human CD40 [10]; 79200 M⁻¹ s⁻¹ in the assay with murine CD40 [11]; 33700 M⁻¹ s⁻¹ with murine CD40 [12]; 114000 M⁻¹ s⁻¹ in assay [13]; 58500 M⁻¹ s⁻¹ in assay [14]. The koff with human galectin-9 (human) [15] worked out at 0.00108 s⁻¹; with human CD40 [16], 0.00103 s⁻¹; with human CD40 [17] it was 0.000733 s⁻¹; with human CD40 [18], 0.000103 s⁻¹; with murine CD40 [19], 0.00286 s⁻¹; in the assay with murine CD40 [20] it was 0.000295 s⁻¹. In addition, the koff in [21] was found to be 0.000803 s⁻¹; in assay [22], 0.00098 s⁻¹.
mouse IgG (antibody) returned an EC50 (read off the curve) with mIgG Fc gamma [23] of 2 nM.

B1: mCD40L-Fc fusion protein (Fc fusion, murine, UniProt P27548 112-260, looked up)
chain: MQRGDEDPQIAAHVVSEANSNAASVLQWAKKGYYTMKSNLVMLENGKQLTVKREGLYYVYTQVTFCSNREPSSQRPFIVGLWLKPSSGSERILLKAANTHSSSQLCEQQSVHLGGVFELQAGASVFVNVTEASQVIHRVGFSSFGLLKL
notes: also called recombinant mCD40L-Fc protein; not shown: Fc part
Consider B1, for which the dissociation constant (Kd) in the assay with human CD40 [24] was 4.8 nM; in the assay with murine CD40 [25] it was 14.1 nM. The association rate constant (kon) amounted to 220000 M⁻¹ s⁻¹ in the assay with human CD40 [24], 81500 M⁻¹ s⁻¹ with murine CD40 [25] and 118000 M⁻¹ s⁻¹ with murine CD40 [28]. The koff with human CD40 [26] turned out to be 0.00115 s⁻¹; with murine CD40 [27], 0.00114 s⁻¹.
